Measured values taken from patent US20260266848A1, “COMPOSITIONS AND METHODS FOR DIAGNOSING AND TREATING DYSTONIA” (Duke University, priority 2023, published 2026).
Like-named read-outs stand apart in the source and are kept apart here.

B1: Uso1 (protein, UniProt Q9Z1Z0 1-959, looked up)
General vesicular transport …: MNFLRGVMGGQSAGPQHTEAETIQKLCDRVASSTLLDDRRNAVRALKSLSKKYRLEVGIQAMEHLIHVLQTDRSDSEIIAYALDTLYNIISNDEEEELEENSTRQSEDLGSQFTEIFIKQPENVTLLLSLLEEFDFHVRWPGVRLLTSLLKQLGPPVQQIILVSPMGVSRLMDLLADSREIIRNDGVLLLQALTRSNGAIQKIVAFENAFERLLDIITEEGNSDGGIVVEDCLILLQNLLKTNNSNQNFFKEGSYIQRMKPWFEVGEENSGWSAQKVTNLHLMLQLVRVLVSPTNPPGATSSCQKAMFQCGLLQQLCTILMATGIPADILTETINTVSEVIRGCQVNQDYFASVNAPSNPPRPAIVVLLMSMVNERQPFVLRCAVLYCFQCFLYKNEKGQGEIVATLLPSTIDATGNSVSAGQLLCGGLFSTDSLSNWCAAVALAHALQGNATQKEQLLRVQLATSIGNPPVSLLQQCTNILSQGSKIQTRVGLLMLLCTWLSNCPIAVTHFLHNSANVPFLTGQIAENLGEEEQLVQGLCALLLGISIYFNDNSLENYTKEKLKQLIEKRIGKENFIEKLGFISKHELYSRASQKPQPNFPSPEYMIFDHEFTKLVKELEGVITKAIYKSSEEDKKEEEVKKTLEQHDNIVTHYKNMIREQDLQLEELKQQVSTLKCQNEQLQTAVTQQASQIQQHKDQYNLLKVQLGKDNHHQGSHGDGAQVNGIQPEEISRLREEIEELKSQQALLQGQLAEKDSLIENLKSSQASGMSEQASATCPPRDPEQVAELKQELTALKSQLCSQSLEITRLQTENCELLQRAETLAKSVPVEGESEHVSAAKTTDVEGRLSALLQETKELKNEIKALSEERTAIQKQLDSSNSTIAILQTEKDKLDLEVTDSKKEQDDLLVLLADQDQKILSLKSKLKDLGHPVEEEDESGDQEDDDDEIDDGDKDQDI
B2: Tra2b (protein, UniProt P62996 2-288, looked up)
Transformer-2 protein homolog …: SDSGEQNYGERESRSASRSGSAHGSGKSARHTPARSRSKEDSRRSRSKSRSRSESRSRSRRSSRRHYTRSRSRSRSHRRSRSRSYSRDYRRRHSHSHSPMSTRRRHVGNRANPDPNCCLGVFGLSLYTTERDLREVFSKYGPIADVSIVYDQQSRRSRGFAFVYFENVDDAKEAKERANGMELDGRRIRVDFSITKRPHTPTPGIYMGRPTYGSSRRRDYYDRGYDRGYDDRDYYSRSYRGGGGGGGGWRAAQDRDQIYRRRSPSPYYSRGGYRSRSRSRSYSPRRY
B3: Gsto1 (protein, UniProt O09131 2-240, looked up)
Glutathione S-transferase …: SGESSRSLGKGSAPPGPVPEGQIRVYSMRFCPFAQRTLMVLKAKGIRHEVININLKNKPEWFFEKNPLGLVPVLENSQGHLVTESVITCEYLDEAYPEKKLFPDDPYKKARQKMTLESFSKVPPLIASFVRSKRKEDSPNLREALENEFKKLEEGMDNYKSFLGGDSPSMVDYLTWPWFQRLEALELKECLAHTPKLKLWMAAMQQDPVASSHKIDAKTYREYLNLYLQDSPEACDYGL
B4: Mdk (protein, UniProt P12025 23-140, looked up)
Midkine: KKKEKVKKGSECSEWTWGPCTPSSKDCGMGFREGTCGAQTQRVHCKVPCNWKKEFGADCKYKFESWGACDGSTGTKARQGTLKKARYNAQCQETIRVTKPCTSKTKSKTKAKKGKGKD
B5: Hnrnph1 (protein, UniProt O35737 1-449, looked up)
Heterogeneous nuclear …: MMLGAEGGEGFVVKVRGLPWSCSADEVQRFFSDCKIQNGAQGIRFIYTREGRPSGEAFVELESEDEVKLALKKDRETMGHRYVEVFKSNNVEMDWVLKHTGPNSPDTANDGFVRLRGLPFGCSKEEIVQFFSGLEIVPNGITLPVDFQGRSTGEAFVQFASQEIAEKALKKHKERIGHRYIEIFKSSRAEVRTHYDPPRKLMAMQRPGPYDRPGAGRGYNSIGRGAGFERMRRGAYGGGYGGYDDYNGYNDGYGFGSDRFGRDLNYCFSGMSDHRYGDGGSTFQSTTGHCVHMRGLPYRATENDIYNFFSPLNPVRVHIEIGPDGRVTGEADVEFATHEDAVAAMSKDKANMQHRYVELFLNSTAGASGGAYEHRYVELFLNSTAGASGGAYGSQMMGGMGLSNQSSYGGPASQQLSGGYGGGYGGQSSMSGYDQVLQENSSDFQSNIA
B6: C1qtnf3 (protein, UniProt Q9BXJ4 23-246, looked up)
Complement C1q tumor necrosis …: QDEYMESPQTGGLPPDCSKCCHGDYSFRGYQGPPGPPGPPGIPGNHGNNGNNGATGHEGAKGEKGDKGDLGPRGERGQHGPKGEKGYPGIPPELQIAFMASLATHFSNQNSGIIFSSVETNIGNFFDVMTGRFGAPVSGVYFFTFSMMKHEDVEEVYVYLMHNGNTVFSMYSYEMKGKSDTSSNHAVLKLAKGDEVWLRMGNGALHGDHQRFSTFAGFLLFETK
B7: Rab6a (protein, UniProt P35279 2-208, looked up)
Ras-related protein Rab-6A: SAGGDFGNPLRKFKLVFLGEQSVGKTSLITRFMYDSFDNTYQATIGIDFLSKTMYLEDRTVRLQLWDTAGQERFRSLIPSYIRDSTVAVVVYDITNVNSFQQTTKWIDDVRTERGSDVIIMLVGNKTDLADKRQVSIEEGERKAKELNVMFIETSAKAGYNVKQLFRRVAAALPGMESTQDRSREDMIDIKLEKPQEQPVNEGGCSC
B8: Ube2n (protein, UniProt P61089 1-152, looked up)
Ubiquitin-conjugating enzyme …: MAGLPRRIIKETQRLLAEPVPGIKAEPDESNARYFHVVIAGPQDSPFEGGTFKLELFLPEEYPMAAPKVRFMTKIYHPNVDKLGRICLDILKDKWSPALQIRTVLLSIQALLSAPNPDDPLANDVAEQWKTNEAQAIETARAWTRLYAMNNI
B9: Vapa (protein, UniProt Q9WV55 2-249, looked up)
Vesicle-associated membrane …: ASASGAMAKHEQILVLDPPSDLKFKGPFTDVVTTNLKLQNPSDRKVCFKVKTTAPRRYCVRPNSGIIDPGSIVTVSVMLQPFDYDPNEKSKHKFMVQTIFAPPNISDMEAVWKEAKPDELMDSKLRCVFEMPNENDKLNDMEPSKAVPLNASKQDGPLPKPHSVSLNDTETRKLMEECKRLQGEMMKLSEENRHLRDEGLRLRKVAHSDKPGSTSAVSFRDNVTSPLPSLLVVIAAIFIGFFLGKFIL
B10: Pld3 (protein, UniProt O35405 1-488, looked up)
5'-3' exonuclease PLD3: MKPKLMYQELKVPVEEPAGELPLNEIEAWKAAEKKARWVLLVLILAVVGFGALMTQLFLWEYGDLHLFGPNQRPAPCYDPCEAVLVESIPEGLEFPNATTSNPSTSQAWLGLLAGAHSSLDIASFYWTLTNNDTHTQEPSAQQGEEVLQQLQALAPRGVKVRIAVSKPNGPLADLQSLLQSGAQVRMVDMQKLTHGVLHTKFWVVDQTHFYLGSANMDWRSLTQVKELGVVMYNCSCLARDLTKIFEAYWFLGQAGSSIPSTWPRSFDTRYNQETPMEICLNGTPALAYLASAPPPLCPSGRTPDLKALLNVVDSARSFIYIAVMNYLPTMEFSHPRRFWPAIDDGLRRAAYERGVKVRLLISCWGHSDPSMRSFLLSLAALHDNHTHSDIQVKLFVVPTDESQARIPYARVNHNKYMVTERASYIGTSNWSGSYFTETAGTSLLVTQNGHGGLRSQLEAVFLRDWESPYSHDLDTSANSVGNACRLL
B11: Pura (protein, UniProt P42669 2-321, looked up)
Transcriptional activator …: ADRDSGSEQGGAALGSGGSLGHPGSGSGSGGGGGGGGGGGGSGGGGGAPGGLQHETQELASKRVDIQNKRFYLDVKQNAKGRFLKIAEVGAGGNKSRLTLSMSVAVEFRDYLGDFIEHYAQLGPSQPPDLAQAQDEPRRALKSEFLVRENRKYYMDLKENQRGRFLRIRQTVNRGPGLGSTQGQTIALPAQGLIEFRDALAKLIDDYGVEEEPAELPEGTSLTVDNKRFFFDVGSNKYGVFMRVSEVKPTYRNSITVPYKVWAKFGHTFCKYSEEMKKIQEKQREKRAACEQLHQQQQQQQEETTAATLLLQGEEEGEED
B12: Pdia4 (protein, UniProt P08003 21-638, looked up)
Protein disulfide-isomerase A4: AASAGDAHEDTSDTENATEEEEEEDDDDLEVKEENGVWVLNDGNFDNFVADKDTVLLEFYAPWCGHCKQFAPEYEKIASTLKDNDPPIAVAKIDATSASMLASKFDVSGYPTIKILKKGQAVDYDGSRTQEEIVAKVREVSQPDWTPPPEVTLSLTKDNFDDVVNNADIILVEFYAPWCGHCKKLAPEYEKAAKELSKRSPPIPLAKVDATEQTDLAKRFDVSGYPTLKIFRKGRPFDYNGPREKYGIVDYMIEQSGPPSKEILTLKQVQEFLKDGDDVVIIGLFQGDGDPAYLQYQDAANNLREDYKFHHTFSPEIAKFLKVSLGKLVLTHPEKFQSKYEPRFHVMDVQGSTEASAIKDYVVKHALPLVGHRKTSNDAKRYSKRPLVVVYYSVDFSFDYRAATQFWRNKVLEVAKDFPEYTFAIADEEDYATEVKDLGLSESGEDVNAAILDESGKKFAMEPEEFDSDTLREFVTAFKKGKLKPVIKSQPVPKNNKGPVKVVVGKTFDAIVMDPKKDVLIEFYAPWCGHCKQLEPIYTSLGKKYKGQKDLVIAKMDATANDITNDQYKVEGFPTIYFAPSGDKKNPIKFEGGNRDLEHLSKFIDEHATKRSRTKEEL

How the values were obtained:
[1] = tested on: DYT-TOR1A MEF EVs; assay: Quantitative LC-MS/MS proteomics of EVs from drug-treated DYT-TOR1A MEF cultures (ritonavir, salubrinal); type: cell-based, mouse; set-up: key to RTV Corrective Direction / RTV Corrective Direction, Grwd1 / RTV Corrective Direction, Srrm2 / RTV Corrective Direction, Rbm17 / RTV Corrective Direction, Dcaf8 / RTV Corrective Direction, Edil3 / RTV Corrective Direction, Timp3 / RTV Corrective Direction, Heatr3 / RTV Corrective Direction, Brd4 / RTV Corrective Direction, P3h4 / RTV Corrective Direction, Pacsin3 / RTV Corrective Direction, Naa50 / RTV Corrective Direction, Lpar6 / RTV Corrective Direction, Ndrg1 / RTV Corrective Direction, Kntc1 / RTV Corrective Direction, Cdk11b / RTV Corrective Direction, Sumo1 / RTV Corrective Direction, Lsm4 / RTV Corrective Direction, Hmga2 / RTV Corrective Direction, Cstf1 / RTV Corrective Direction, Tes / RTV Corrective Direction, Sbno1 / RTV Corrective Direction, Unc119b / RTV Corrective Direction, Cfdp1 / RTV Corrective Direction, Sec61b: YES = protein abundance effect opposite to DYT/WT; settings: for DYT + RTV/DYT Cohen's d: ritonavir (RTV)-treated DYT vs DYT
[2] = tested on: WT MEF EVs; assay: Quantitative LC-MS/MS proteomics of EVs from ISRIB-treated WT MEF cultures; type: cell-based, mouse; settings: EV protein abundance, ISRIB-treated WT vs WT
[3] = EV protein abundance, DYT + RTV (ritonavir) vs DYT, direction compared with DYT/WT

Molecule | RTV Corrective Direction [1, 3] | DYT + RTV/DYT Cohen's d ([1]; EV protein abundance) | WT + ISRIB/WT Cohen's d [2] | RTV Corrective Direction [1]
B1 | YES | 9.12 | 2.44 | 
B2 | YES | 3.28 | 0.54 | 
B3 | YES | 3.45 | 0.04 | 
B4 | YES | 3.64 | 1.33 | 
B5 | YES | 4.23 | 2.47 | 
B6 | YES | −3.24 | −0.18 | 
B7 | YES | 3.14 | 0.44 | 
B8 | YES | 6.02 | 0.41 | 
B9 | YES | 1.91 | 3.18 | 
B10 | YES | 0.61 | 1.18 | 
B11 |  | 2.36 | 0.52 | YES
B12 | YES | 2.25 | 1.37 | 
